Key:
[1] = target: T1, cynomolgus monkey CD70 on HSC-F cells (cynomolgus monkey, UniProt A0A2K5WTU9 1-190); assay: flow cytometry on cynomolgus HSC-F cells, goat anti human IgG1 FITC [panel cynomolgus monkey]
T1 construct: whole, on cells; also called cynomolgus CD70
T1 sequence: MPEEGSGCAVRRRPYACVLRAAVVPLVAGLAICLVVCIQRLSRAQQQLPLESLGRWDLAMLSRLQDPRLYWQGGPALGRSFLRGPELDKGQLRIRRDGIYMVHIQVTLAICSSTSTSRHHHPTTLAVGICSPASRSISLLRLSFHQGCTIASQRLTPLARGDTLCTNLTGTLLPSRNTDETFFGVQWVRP

[2] = target: T2, human CD70 expressed on the surface of cells (human, UniProt P32970 1-193); assay: FACS MFI at 37 C, 786-O cells; reference SGN70
T2 construct: whole, on cells; also called cell surface expressed CD70; CD70 on cells
T2 sequence (looked up): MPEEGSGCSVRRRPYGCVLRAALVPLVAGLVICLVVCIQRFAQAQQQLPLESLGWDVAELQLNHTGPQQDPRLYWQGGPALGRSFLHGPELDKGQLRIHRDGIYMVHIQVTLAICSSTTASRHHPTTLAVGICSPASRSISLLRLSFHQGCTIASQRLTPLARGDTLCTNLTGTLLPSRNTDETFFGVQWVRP
Protocol: (§1) Several cancer cell lines were tested by FACS analysis for binding of ARGX-110 and SGN70 (described in US2010/0129362) at saturating mAb concentrations (at least 2 μg/ml). This was either done at 4° C. (1 hour incubation of cells with mAbs) or at 37° C. (15 minutes incubation of cells with mAbs). Binding was detected using anti-hIgG1-Fc-FITC (AF006, Binding Site) or anti-hIgG1-Fc-PE antibody (eBioscience, 12-4998). Fluorescence was measured using a flow cytometer.

[3] = target: T3, recombinant human CD70 (Flag-TNC-CD70) (human, UniProt P32970 39-193); assay: blocking ELISA; Flag-TNC-CD70 captured by anti-FLAG M2; competitor CD27-Fc 6.5 nM
T3 construct: extracellular domain; Captured by anti-Flag mAb in ELISA; as 'recombinant human CD70' immobilised on Biacore CM5 chips; TNC is for trimerisation; also called recombinant CD70; human recombinant CD70; not shown: Flag tag and TNC trimerisation domain
T3 sequence (looked up): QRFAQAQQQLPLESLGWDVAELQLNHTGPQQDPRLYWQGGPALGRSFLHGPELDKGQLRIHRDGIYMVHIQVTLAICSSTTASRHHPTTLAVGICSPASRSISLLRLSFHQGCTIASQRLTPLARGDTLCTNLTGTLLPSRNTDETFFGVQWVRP
Protocol: In this assay, a microtiter plate (Nunc Maxisorb) was first coated with 100 μl anti-FLAG M2 monoclonal antibody (Sigma Aldrich, F3165) at 1250-fold dilution in PBS (to achieve a final concentration of approximately 3.5 μg/ml) overnight at 4° C. The plate was washed once with PBS-Tween and incubated at RT for 2 hours with 300 μl PBS-1% casein. The plate was washed a further three times with PBS-Tween. 100 μl of 5 ng/ml (80 pM) Flag-TNC-CD70 (The Journal of Immunology, 2009, 183: 1851-1861) diluted in PBS-0.1% casein was added to the plate and incubated at RT for 1 hour while shaking. The plate was washed five times with PBS-Tween. The CD70 mAb to be tested was added to the plate; various concentrations were achieved by diluting the stock antibody solution in PBS-0.1% casein. Immediately thereafter, 50 μl of 1 μg/ml (final concentration 6.5 nM) recombinant human CD27 Fc chimera (R&D systems 382-CD, MW=46.5 kDa) was added, and incubated at RT for 1 hour while shaking. The plate was washed five times with PBS Tween. 100 μl of biotinylated anti-CD27 (eBioscience 13-0271), diluted 500-fold in PBS-0.1% casein, was added, and the plate incubated at RT for a further hour, while shaking. The plate was washed five times with PBS Tween. […] 100 μl TMB was added to the plate and the OD at 620 nm was measured. […]

[4] = target: T2, human CD70 expressed on the surface of …; assay: FACS MFI at 37 C, U266 cells; reference SGN70
Protocol: as §1

[5] = target: T3, recombinant human CD70 (Flag-TNC-CD70); assay: ELISA; Flag-TNC-CD70 captured by anti-Flag mAb; anti-human-Fc-HRP
Protocol: A Maxisorb (Nunc) microtiter plate was coated with 3.5 μg/ml mouse M2 anti-Flag mAb (Sigma Aldrich, F3165) and the different chimeras were captured. A dilution series of the CD70 mAbs to be tested was applied starting at a concentration of 10 μg/ml and making 3-fold dilutions. After 2 hours, binding was detected using anti-human-Fc-HRP at a 16000-fold dilution. Staining was done with ABTS and OD at 405 nm was measured. As a positive control, CD27-Fc was applied which is able to bind to both human and mouse CD70 with good affinity as well as to the chimeric human-mouse CD70 variants.

[6] = target: T2, human CD70 expressed on the surface of …; assay: flow cytometry on SU-DHL-6 cells, 1 h at 4 °C, anti-hIgG1-Fc-FITC or anti-hIgG-Fc-PE [panel SU-DHL-6]
Protocol: […] This was either done at 4° C. (1 hour incubation of cells with mAbs) or at 37° C. (15 minutes incubation of cells with mAbs). Binding was detected using anti-hIgG1-Fc-FITC (AF006, Binding Site) or anti-hIgG1-Fc-PE antibody (eBioscience, 12-4998). Fluorescence was measured using a flow cytometer.

[7] = target: T2, human CD70 expressed on the surface of …; assay: FACS MFI at 37 C, HUT78 cells; reference SGN70
Protocol: as §1

B1: ARGX-110 (non-fucosylated 41D12 human IgG1) (antibody, V domains shown)
VH: EVQLVESGGGLVQPGGSLRLSCAASGFTFSVYYMNWVRQAPGKGLEWVSDINNEGGTTYYADSVKGRFTISRDNSKNSLYLQMNSLRAEDTAVYYCARDAGYSNHVPIFDSWGQGTLVTVSS
VL: QAVVTQEPSLTVSPGGTVTLTCGLKSGSVTSDNFPTWYQQTPGQAPRLLIYNTNTRHSGVPDRFSGSILGNKAALTITGAQADDEAEYFCALFISNPSVEFGGGTQLTVLG
notes: also called 41D12 (ARGX-110)
- EC50 (read off the curve) [1]: ~0.08 µg/mL
- Signal in FACS of ARGX-110/signal in FACS of SGN70 [2]: 2.1 ratio
- IC50 [3]: 0.067 µg/mL
- Signal in FACS of ARGX-110/signal in FACS of SGN70 [4]: 0.8 ratio
- EC50 [5]: 0.022 µg/mL
- EC50 (read off the curve) [6]: ~2 µg/mL
- Signal in FACS of ARGX-110/signal in FACS of SGN70 [7]: 1 ratio

From patent US20150266963A1 (ARGEN X B V, published 2015)
